From patent US7119182 (University of California, dated 2006)
Numbered stars: 1 amine (or outer) side, 2 acyl side, 3 side chain; on linkers, the order of the positions; unused ones are H or OH. Square brackets hold non-standard residues; d marks the D form. Ends that are not written are not given here. SMeCys = S-methylcysteine, CSC[C@H](N[*:1])C(=O)[*:2]; Tic = O=C(O)[C@@H]1Cc2ccccc2CN1; Cha = N[C@@H](CC1CCCCC1)C(=O)O; Phg = N[C@H](C(=O)O)c1ccccc1

B1: (S-MeCys)FLLRN-NH2 (peptide)
peptide: [SMeCys]FLLRN-NH2
modifications: N-terminus assumed
SMILES: CSC[C@H](N)C(=O)N[C@@H](Cc1ccccc1)C(=O)N[C@@H](CC(C)C)C(=O)N[C@@H](CC(C)C)C(=O)N[C@@H](CCCNC(=N)N)C(=O)N[C@@H](CC(N)=O)C(N)=O
B2: SF(Cha)LRN-NH2 (peptide)
peptide: SF[Cha]LRN-NH2
modifications: N-terminus assumed
SMILES: CC(C)C[C@H](NC(=O)[C@H](CC1CCCCC1)NC(=O)[C@H](Cc1ccccc1)NC(=O)[C@@H](N)CO)C(=O)N[C@@H](CCCNC(=N)N)C(=O)N[C@@H](CC(N)=O)C(N)=O
B3: SF(Cha) (Cha)RN-NH2 (peptide)
peptide: SF[Cha][Cha]RN-NH2
modifications: N-terminus assumed
SMILES: N=C(N)NCCC[C@H](NC(=O)[C@H](CC1CCCCC1)NC(=O)[C@H](CC1CCCCC1)NC(=O)[C@H](Cc1ccccc1)NC(=O)[C@@H](N)CO)C(=O)N[C@@H](CC(N)=O)C(N)=O
B4: SF(Phg)LR-NH2 (peptide)
peptide: SF[Phg]LR-NH2
modifications: N-terminus assumed
SMILES: CC(C)C[C@H](NC(=O)[C@@H](NC(=O)[C@H](Cc1ccccc1)NC(=O)[C@@H](N)CO)c1ccccc1)C(=O)N[C@@H](CCCNC(=N)N)C(N)=O
B5: SFL(Cha)R-NH2 (peptide)
peptide: SFL[Cha]R-NH2
modifications: N-terminus assumed
SMILES: CC(C)C[C@H](NC(=O)[C@H](Cc1ccccc1)NC(=O)[C@@H](N)CO)C(=O)N[C@@H](CC1CCCCC1)C(=O)N[C@@H](CCCNC(=N)N)C(N)=O
B6: SF(Cha)LR-NH2 (peptide)
peptide: SF[Cha]LR-NH2
modifications: N-terminus assumed
SMILES: CC(C)C[C@H](NC(=O)[C@H](CC1CCCCC1)NC(=O)[C@H](Cc1ccccc1)NC(=O)[C@@H](N)CO)C(=O)N[C@@H](CCCNC(=N)N)C(N)=O
B7: SF(Tic)LRN-NH2 (peptide)
peptide: SF[Tic]LRN-NH2
modifications: N-terminus assumed
SMILES: CC(C)C[C@H](NC(=O)[C@@H]1Cc2ccccc2CN1C(=O)[C@H](Cc1ccccc1)NC(=O)[C@@H](N)CO)C(=O)N[C@@H](CCCNC(=N)N)C(=O)N[C@@H](CC(N)=O)C(N)=O

Biological target: T1, human thrombin receptor (human, UniProt P25116 42-425)
T1 chain: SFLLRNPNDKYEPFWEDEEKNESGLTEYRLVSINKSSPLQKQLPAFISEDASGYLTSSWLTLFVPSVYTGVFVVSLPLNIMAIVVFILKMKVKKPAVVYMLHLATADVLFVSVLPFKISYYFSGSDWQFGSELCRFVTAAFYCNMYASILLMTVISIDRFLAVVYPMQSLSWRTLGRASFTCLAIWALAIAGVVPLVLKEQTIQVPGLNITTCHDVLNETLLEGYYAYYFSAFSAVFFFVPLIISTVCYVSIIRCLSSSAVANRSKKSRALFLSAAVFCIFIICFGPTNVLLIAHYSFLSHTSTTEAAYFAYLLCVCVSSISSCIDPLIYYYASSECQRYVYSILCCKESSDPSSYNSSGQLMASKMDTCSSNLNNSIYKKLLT
Experiment: cell-based or functional assay

| Binder | EC50 (concentration required to elicit a 50% maximal aggregation), platelet aggregation [µM] |
| --- | --- |
| SFL[Nal]RN-NH2 (not fully specified; printed as SFL(Nal)RN-NH2) [SFL(Nal)RN-NH2] | 7.5 |
| SFLIRN-NH2 [SFLIRN-NH2] | 20.5 |
| SFGLR-NH2 [SFGLR-NH2] | 95 |
| SFLLRN-NH2 [SFLLRN-NH2] | 1.6 |
| SFILR-NH2 [SFILR-NH2] | 5.9 |
| XFLLR (b-Ala at position 1; C-terminal amide (NH2)) [[b-Ala]-FLLR-NH2] | 99 |
| SFFLR-NH2 [SFFLR-NH2] | 3.4 |
| SFYLRN-NH2 [SFYLRN-NH2] | 4.9 |
| AFLLRNPNDKYE | 12.9 |
| SYLLR-NH2 [SYLLR-NH2] | 288 |
| SFHLRN-NH2 [SFHLRN-NH2] | 40.5 |
| SFALRNPNDKYE | 20.7 |
| SFLLX (D-Arg at position 5; C-terminal amide (NH2)) [SFLL(D-Arg)-NH2] | 594 |
| {3‑Tetrahydrofuranoyl}-FLLR-NH2 [[3-Tetrahydrofuranoyl]-FLLR-NH2] | 1000 |
| SFLLRNPNDK | 6.3 |
| SFWLR-NH2 [SFWLR-NH2] | 24 |
| TFLLRNPNDK | 8.5 |
| GFLLR-NH2 [GFLLRNH2] | 7.3 |
| SFLL-NH2 [SFLL-NH2] | 146 |
| SFLLR-NH2 [SFLLR-NH2] | 7.5 |
| SFPLR-NH2 [SFPLR-NH2] | 22 |
| SFLLRNPNDKYE | 6.6 |
| SXLLR (Nal at position 2; C-terminal amide (NH2)) [S(Nal)LLR-NH2] | 42 |
| B1 | 129 |
| SFLFR-NH2 [SFLFR-NH2] | 17 |

| Binder | EC50 (concentration required to elicit a 50% maximal aggregation), platelet aggregation [µM] |
| --- | --- |
| B2 | 1.3 |
| SFXLR (N-MeLeu at position 3; C-terminal amide (NH2)) [SF(N-MeLeu)LR-NH2] | > 1000 |
| SF[Cha][Cha]LRNPNDK [SF(Cha) (Cha)LRNPNDK] | 5.4 |
| {2‑MeButyryl}-FLLR-NH2 [(2-MeButyryl]-FLLR-NH2] | 1500 |
| B3 | 1.1 |
| CFLLR-NH2 [CFLLR-NH2] | 193 |
| B4 | 6.7 |
| SFLQRN-NH2 [SFLQRN-NH2] | 61 |
| SXLLR (Cha at position 2; C-terminal amide (NH2)) [S(Cha)LLR-NH2] | 140 |
| Ac-FLLRNPNDKYEPF [Ac-FLLRNPNDKYEPF] | 796 |
| SFLAR-NH2 [SFLAR-NH2] | 146 |
| B5 | 6 |
| B6 | 1.5 |
| SFLLRNPN | 7.6 |
| SFFLRN-NH2 [SFFLRN-NH2] | 1.5 |
| desaminoAsn-FLLR-NH2 [[desaminoAsn]-FLLR-NH2] | 237 |
| SFLRR-NH2 [SFLRR-NH2] | 1000 |
| SFLLA-NH2 [SFLLA-NH2] | 137 |
| SFLLRNP-NH2 [SFLLRNP-NH2] | 4.5 |
| SXLLR (Thi at position 2; C-terminal amide (NH2)) [S(Thi)LLR-NH2] | 7.6 |
| XFLLR (desaminoSer at the N-terminus; C-terminal amide (NH2)) [[desaminoSer]-FLLR-NH2] | 920 |
| B7 | 11.3 |
| SFRLR-NH2 [SFRLR-NH2] | 7.4 |
| SXLLR (OMeTyr at position 2; C-terminal amide (NH2)) [S(OMeTyr)LLR-NH2] | 46 |
